Assay results taken from PMC314469, “Protein Interaction Networks by Proteome Peptide Scanning” (PLoS Biology, 2004).

T1: Boi1 SH3 (BOI1_YEAST), P38041
T1 chain: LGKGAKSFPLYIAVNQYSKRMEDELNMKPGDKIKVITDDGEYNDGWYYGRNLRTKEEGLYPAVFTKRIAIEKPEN

T2: Boi2 SH3 (BOI2_YEAST), P39969
T2 chain: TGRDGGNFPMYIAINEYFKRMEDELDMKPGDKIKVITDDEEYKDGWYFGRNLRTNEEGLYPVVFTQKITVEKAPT

T3: Myo5 SH3 (MYO5_YEAST), Q04439
T3 chain: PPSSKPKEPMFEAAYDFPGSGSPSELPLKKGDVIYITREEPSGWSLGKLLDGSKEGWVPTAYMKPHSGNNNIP

T4: Rvs167 SH3 (RV167_YEAST), P39743
T4 chain: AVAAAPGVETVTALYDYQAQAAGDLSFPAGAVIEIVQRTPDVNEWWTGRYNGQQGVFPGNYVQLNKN

T5: Yfr024 SH3 (LSB3_YEAST), P43603
T5 chain: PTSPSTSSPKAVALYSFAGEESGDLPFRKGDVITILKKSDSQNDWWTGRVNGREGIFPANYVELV

T6: Yhr016c SH3 (YSC84_YEAST), P32793
T6 chain: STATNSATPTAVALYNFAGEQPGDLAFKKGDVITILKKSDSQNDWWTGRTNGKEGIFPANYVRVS


Experiments:
Assay in all cases: SPOT array
[1] = target: T1, Boi1 SH3 (BOI1_YEAST), P38041
[2] = target: T2, Boi2 SH3 (BOI2_YEAST), P39969
[3] = target: T3, Myo5 SH3 (MYO5_YEAST), Q04439
[4] = target: T4, Rvs167 SH3 (RV167_YEAST), P39743
[5] = target: Sho1 SH3 (SHO1_YEAST), P40073
Chain of Sho1 SH3 (SHO1_YEAST), P40073 (P40073 295-366): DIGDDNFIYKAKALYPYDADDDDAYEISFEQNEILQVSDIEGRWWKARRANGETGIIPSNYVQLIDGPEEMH

[6] = target: T5, Yfr024 SH3 (LSB3_YEAST), P43603
[7] = target: T6, Yhr016c SH3 (YSC84_YEAST), P32793

Row | Binder | normalised SPOT signal, Boehringer light units (BLU); mean over the file's lines of this peptide [1] | normalised SPOT signal, Boehringer light units (BLU); mean over the file's lines of this peptide [2] | normalised SPOT signal, Boehringer light units (BLU); mean over the file's lines of this peptide [3] | normalised SPOT signal, Boehringer light units (BLU); mean over the file's lines of this peptide [4] | normalised SPOT signal, Boehringer light units (BLU); mean over the file's lines of this peptide [5] | normalised SPOT signal, Boehringer light units (BLU); mean over the file's lines of this peptide [6] | normalised SPOT signal, Boehringer light units (BLU); mean over the file's lines of this peptide [7]
1 | SYMDKIYPDLPNDK [YFL047W 497-510] | 221 | 22.8 | 83 | 75.3 | 138 | 224 | 37.2
2 | TARNKKSPGGPRQR [YLR244C 372-385] | 273 | 45.9 | 593 | 84 | 109 | 423 | 28.9
3 | TASGKTSPILPLQN [YBR066C 94-107] | 106 | 20.8 | 290 | 35.8 | 0.1 | 2.6 | 5.1
4 | TDLFKPLPEPPTEL [YNL331C 2-15] | 32.5 | 23.1 | 23.4 | 18.8 | 14700 | 129 | 31.5
5 | TDLGKDIPFFPSSE [YDR443C 541-554] | 0 | 15.6 | 146 | 59.3 | 48.6 | 9.5 | 13.5
6 | TDTTKVTPIVPVPI [YHR188C 382-395] | 27.1 | -0 | 48 | 24.6 | 30.2 | 11.7 | 6.5
7 | TEFSRPIPPTPSGF [YPL009C 63-76] | 40.4 | 0 | 163 | 34400 | 86.7 | 13800 | 9520
8 | TEIYKLEPREPQVD [YEL031W 1078-1091] | 132 | 15.6 | 29.1 | 98 | 29 | 0 | 64.7
9 | TELLKTLPFYPTPS [YGR110W 91-104] | 57.9 | 0 | 77.3 | 57.4 | 53.6 | 22.7 | 10.8
10 | TELLRIIPEMPKDL [YLR032W 80-93] | 79.9 | 15.7 | 228 | 22.9 | 97.2 | 132 | 19.4
11 | TEVWRKVPMKPIFE [YCR032W 1849-1862] | 163 | 33.4 | 243 | 523 | 59.1 | 4970 | 788
12 | TGESRKAPLIPLLK [YGR099W 447-460] | 8.4 | -0 | 214 | 101 | 23.8 | 162 | 5.8
13 | TGGGRIVPGVPPGA [YGR054W 516-529] | 79.3 | 21.9 | 118 | 313 | 72.9 | 132 | 50.4
14 | TGKFRYMPFSPAGT [YPR135W 471-484] | 463 | 103 | 556 | 430 | 301 | 607 | 148
15 | TGKPRKTPRPPFPF [YLR422W 149-162] | 1420 | 27.8 | 1190 | 3630 | 121 | 6310 | 1160
16 | TGYPRYFPQPPVQR [YLL058W 44-57] | 3760 | 34.1 | 5860 | 261 | 44.3 | 415 | 36.7
